Experimental data published in FireProtDB (doi:10.1021/bi00252a018).

Settings: Streptomyces albogriseolus, Thermal, DSC, reversible: yes (70-85%), whole UniProt chain shown

B1: Subtilisin inhibitor wild type, P01006 (protein)
chain: MRNTGAGPSPSVSRPPPSAAPLSGAALAAPGDAPSALYAPSALVLTVGKGVSATTAAPERAVTLTCAPGPSGTHPAAGSACADLAAVGGDLNALTRGEDVMCPMVYDPVLLTVDGVWQGKRVSYERVFSNECEMNAHGSSVFAF
pH 2.9, glycine 25 mM
  Tm: 44.5 °C
pH 2.94, glycine 25 mM
  Tm: 43.9 °C
pH 2.98, glycine 25 mM
  Tm: 45.4 °C
pH 3.03, glycine 25 mM
  Tm: 47.8 °C
pH 3.04, glycine 25 mM
  Tm: 47.6 °C
pH 3.07, glycine 25 mM
  Tm: 48.8 °C
pH 3.12, glycine 25 mM
  Tm: 50.5 °C
pH 3.15, glycine 25 mM
  Tm: 51.3 °C
pH 3.16, glycine 25 mM
  Tm: 52.2 °C
pH 3.2, glycine 25 mM
  Tm: 53.6 °C
pH 3.21, glycine 25 mM
  Tm: 53.4 °C
pH 3.24, glycine 25 mM
  Tm: 54.3 °C
pH 3.25, glycine 25 mM
  Tm: 55.7 °C
pH 7, phosphate 25 mM
  Tm: 82 °C
pH 9.2, glycine 25 mM
  Tm: 80.1 °C
pH 9.75, glycine 25 mM
  Tm: 80.2 °C
